# Test results from PMC10170503, “Oral Delivery of Nanoparticles Carrying Ancestral Uricase Enzyme Protects against Hyperuricemia in Knockout Mice” (Biomacromolecules, 2023).
# B1: Qβ capsid protein (coat protein), assembled as virus-like particle (natural protein, Qβ (bacteriophage, as named), UniProt P03615 1-133, looked up)
# chain: MAKLETVTLGNIGKDGKQTLVLNPRGVNPTNGVASLSQAGAVPALEKRVTVSVSQPSRNRKNYKVQVKIQNPTACTANGSCDPSVTRQAYADVTFSFTQYSTDEERAFVRTELAALLASPLLIDAIDQLNPAY
# notes: also called Qβ CP; CP; source: E. coli BL21 (DE3), co-expressed with Rev-tagged AncUOX from a bicistronic pCDF-1b plasmid; VLPs purified (ammonium sulfate precipitation, n-butanol:chloroform extraction, sucrose density ultracentrifugation)
# Target: the molecule itself
# Assay: microfluidic denaturing gel electrophoresis (Bioanalyzer); Agilent Bioanalyzer 2100, Protein 80 chip; purified Qβ-wt and Qβ@AncUOX particles; dimer band left by incomplete denaturation
protein,measurement,value
B1,stoichiometry N,2
